In the supplement of paper PMC10567573 one finds protein stability index data, which are given here for 94 variants.

Sequences and labels used below:
B1: PPP2R2C (parent)
chain: YSSSKGSLRLCDMRAAALCDKHSK
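Also: lentivirally expressed fusions sorted by FACS into six bins by GFP to DsRed ratio, PSI derived from sequencing read proportions per bin multiplied by bin number.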

Variants of B1 are the subject of the data set. Put plainly: protein stability index of a GFP-peptide fusion (GPS, HEK-293T) (PSI 1-6); higher = more stable. As to conditions: c terminus: a fixed tail appended.
Take YSSSKGSLRLQDMRAAALCDKHSK [C11Q]: the protein stability index was found to be 2.97. The value for YSSSKGSLRLWDMRAAALCDKHSK [C11W] was 1.2; that for YSSSKGSLRLKDMRAAALCDKHSK [C11K] was 3.07; that for YSSSKGSLRLYDMRAAALCDKHSK [C11Y] was 2.75.

In the case of YSSSKGSLRLVDMRAAALCDKHSK [C11V], the protein stability index stood at 1.8. The figure for YSSSKGSLRLHDMRAAALCDKHSK [C11H] is 3.63; for YSSSKGSLRLEDMRAAALCDKHSK [C11E] it is 3.85. The value for YSSSKGSLRLGDMRAAALCDKHSK [C11G] was 2.92. The figure for YSSSKGSLRLSDMRAAALCDKHSK [C11S] is 3.16; for YSSSKGSLRLLDMRAAALCDKHSK [C11L] it is 2.36. Regarding YSSSKGSLRLNDMRAAALCDKHSK [C11N], the protein stability index amounted to 3.72. The value for YSSSKGSLRLADMRAAALCDKHSK [C11A] was 2.96; that for YSSSKGSLRLFDMRAAALCDKHSK [C11F] was 1.67; that for YSSSKGSLRLPDMRAAALCDKHSK [C11P] was 4.05.

Turning to YSSSKGSLRLTDMRAAALCDKHSK [C11T], the protein stability index was 2.88. The figure for YSSSKGSLRLRDMRAAALCDKHSK [C11R] is 3.31. The value for YSSSKGSLRLMDMRAAALCDKHSK [C11M] was 2.29; that for YSSSKGSLRLDDMRAAALCDKHSK [C11D] was 3.74. The value for YSSSKGSLRLIDMRAAALCDKHSK [C11I] was 1.42; that for YSSSKGSLRLCAMRAAALCDKHSK [D12A] was 2.32.

As for YSSSKGSLRLCPMRAAALCDKHSK [D12P], the protein stability index worked out at 2.25. The figure for YSSSKGSLRLCIMRAAALCDKHSK [D12I] is 1.6; for YSSSKGSLRLCEMRAAALCDKHSK [D12E] it is 2.71.

Take YSSSKGSLRLCNMRAAALCDKHSK [D12N]: the protein stability index is 2.63. YSSSKGSLRLCTMRAAALCDKHSK [D12T]: the protein stability index was determined as 2.69.

As for YSSSKGSLRLCVMRAAALCDKHSK [D12V], the protein stability index came to 2.11. The figure for YSSSKGSLRLCFMRAAALCDKHSK [D12F] is 1.52; for YSSSKGSLRLCYMRAAALCDKHSK [D12Y] it is 2.1.

Turning to YSSSKGSLRLCQMRAAALCDKHSK [D12Q], the protein stability index worked out at 2.76. The value for YSSSKGSLRLCHMRAAALCDKHSK [D12H] was 3.2; that for YSSSKGSLRLCSMRAAALCDKHSK [D12S] was 2.29; that for YSSSKGSLRLCGMRAAALCDKHSK [D12G] was 1.93.

For the variant YSSSKGSLRLCMMRAAALCDKHSK [D12M], the protein stability index came out at 1.78. YSSSKGSLRLCRMRAAALCDKHSK [D12R]: the protein stability index was 2.36. Consider YSSSKGSLRLCLMRAAALCDKHSK [D12L], for which the protein stability index is 1.82. The figure for YSSSKGSLRLCCMRAAALCDKHSK [D12C] is 1.99; for YSSSKGSLRLCKMRAAALCDKHSK [D12K] it is 2.54; for YSSSKGSLRLCWMRAAALCDKHSK [D12W] it is 2.7.

On to YSSSKGSLRLCDMYAAALCDKHSK [R14Y], for which the protein stability index was 2.45. YSSSKGSLRLCDMKAAALCDKHSK [R14K]: the protein stability index came out at 1.68. The figure for YSSSKGSLRLCDMWAAALCDKHSK [R14W] is 1.69; for YSSSKGSLRLCDMDAAALCDKHSK [R14D] it is 1.55; for YSSSKGSLRLCDMQAAALCDKHSK [R14Q] it is 1.27.

For the variant YSSSKGSLRLCDMNAAALCDKHSK [R14N], the protein stability index was found to be 2.48. The figure for YSSSKGSLRLCDMPAAALCDKHSK [R14P] is 1.8; for YSSSKGSLRLCDMEAAALCDKHSK [R14E] it is 2.3; for YSSSKGSLRLCDMLAAALCDKHSK [R14L] it is 2.18. For YSSSKGSLRLCDMSAAALCDKHSK [R14S], the protein stability index was 2.02. As for YSSSKGSLRLCDMTAAALCDKHSK [R14T], the protein stability index stood at 1.98.

With YSSSKGSLRLCDMHAAALCDKHSK [R14H], the protein stability index is 2.34. For the variant YSSSKGSLRLCDMAAAALCDKHSK [R14A], the protein stability index was found to be 2.03. As for YSSSKGSLRLCDMGAAALCDKHSK [R14G], the protein stability index amounted to 2.13. The value for YSSSKGSLRLCDMCAAALCDKHSK [R14C] was 2.89; that for YSSSKGSLRLCDMFAAALCDKHSK [R14F] was 2.27; that for YSSSKGSLRLCDMVAAALCDKHSK [R14V] was 1.81. The figure for YSSSKGSLRLCDMMAAALCDKHSK [R14M] is 2.29.

On to YSSSKGSLRLCDMRNAALCDKHSK [A15N], for which the protein stability index came out at 2.54. The value for YSSSKGSLRLCDMRHAALCDKHSK [A15H] was 1.78. The figure for YSSSKGSLRLCDMRMAALCDKHSK [A15M] is 2.72; for YSSSKGSLRLCDMRIAALCDKHSK [A15I] it is 1.96.

Take YSSSKGSLRLCDMRSAALCDKHSK [A15S]: the protein stability index is 2.31. The value for YSSSKGSLRLCDMRDAALCDKHSK [A15D] was 1.72; that for YSSSKGSLRLCDMRTAALCDKHSK [A15T] was 2.09; that for YSSSKGSLRLCDMRQAALCDKHSK [A15Q] was 1.77. On to YSSSKGSLRLCDMRWAALCDKHSK [A15W], for which the protein stability index is 1.81. For the variant YSSSKGSLRLCDMRPAALCDKHSK [A15P], the protein stability index worked out at 2.43. The value for YSSSKGSLRLCDMRFAALCDKHSK [A15F] was 2.4; that for YSSSKGSLRLCDMRRAALCDKHSK [A15R] was 1.38; that for YSSSKGSLRLCDMRGAALCDKHSK [A15G] was 2.24.

Consider YSSSKGSLRLCDMRCAALCDKHSK [A15C], for which the protein stability index is 1.14. The value for YSSSKGSLRLCDMRVAALCDKHSK [A15V] was 1.6; that for YSSSKGSLRLCDMRKAALCDKHSK [A15K] was 1.58. The figure for YSSSKGSLRLCDMREAALCDKHSK [A15E] is 2.61; for YSSSKGSLRLCDMRLAALCDKHSK [A15L] it is 1.54; for YSSSKGSLRLCDYRAAALCDKHSK [M13Y] it is 3.27.

As to YSSSKGSLRLCDDRAAALCDKHSK [M13D], the protein stability index amounted to 2.37. The value for YSSSKGSLRLCDERAAALCDKHSK [M13E] was 2.49; that for YSSSKGSLRLCDRRAAALCDKHSK [M13R] was 1.68.

For the variant YSSSKGSLRLCDFRAAALCDKHSK [M13F], the protein stability index was 1.46. The figure for YSSSKGSLRLCDLRAAALCDKHSK [M13L] is 2. The value for YSSSKGSLRLCDPRAAALCDKHSK [M13P] was 2.21; that for YSSSKGSLRLCDIRAAALCDKHSK [M13I] was 2.08; that for YSSSKGSLRLCDTRAAALCDKHSK [M13T] was 2.21.

Turning to YSSSKGSLRLCDHRAAALCDKHSK [M13H], the protein stability index was 1.56. The figure for YSSSKGSLRLCDQRAAALCDKHSK [M13Q] is 1.83; for YSSSKGSLRLCDWRAAALCDKHSK [M13W] it is 1.61.

In the case of YSSSKGSLRLCDGRAAALCDKHSK [M13G], the protein stability index was determined as 2.

For YSSSKGSLRLCDNRAAALCDKHSK [M13N], the protein stability index is 2.05. YSSSKGSLRLCDSRAAALCDKHSK [M13S]: the protein stability index came to 1.65. The value for YSSSKGSLRLCDARAAALCDKHSK [M13A] was 1.52.

Take YSSSKGSLRLCDCRAAALCDKHSK [M13C]: the protein stability index was determined as 1.73.

As for YSSSKGSLRLCDVRAAALCDKHSK [M13V], the protein stability index came to 2.07. The value for YSSSKGSLRLCDKRAAALCDKHSK [M13K] was 2.08. The value for YSSSKGSLRYCDMRAAALCDKHSK [L10Y] was 2.02.
